# Data as given in PMC8376927.
# Assays:
# [1] = molecular target: DAPK2_RNTD, full-length human DAPK2 mutant with the C terminus S367STS370 changed to R367NTD370, autophosphorylated (human) (UniProt Q9UIK4); experiment: AUC; sedimentation velocity, DAPK2_RNTD alone at 25-350 μM; 20 °C, 42,000 rev./min; 50 mM HEPES-NaOH pH 7.5, 150 mM NaCl, 1 mM TCEP; dimer to monomers, KD from the ratios of the peak areas
# [2] = molecular target: FAM-ctDAPK2-pT369 peptide (FAM-RRRSSpTS) (human); experiment: fluorescence polarisation; as a1 but with 100 µM Fusicoccin A (FC-A); apparent KD
# [3] = molecular target: FAM-ctDAPK2-pT369 peptide (FAM-RRRSSpTS) (human); experiment: fluorescence polarisation; 14-3-3γ (160 µM and binary dilution series) incubated 1 h with 50 nM FAM-labelled peptide; 20 mM HEPES-NaOH pH 7.4, 150 mM NaCl, 0.1% Tween 20, 0.1% BSA; one-site-binding model; apparent KD
Kd [1],stoichiometry N [1],Kd [2],Kd [3],Substance
100 µM,2,,,"DAPK2_RNTD, full-length human DAPK2 mutant with the C terminus S367STS370 changed to R367NTD370, autophosphorylated (from UniProt Q9UIK4 1-370) (enzyme)"
,,0.0044 µM,0.114 µM,Human 14-3-3γ WT (from UniProt P61981 1-247) (natural protein)
